In patent US6867016:

Molecular target: rabbit anti-CS141 peptide antiserum raised against unconjugated peptide SEQUENCE ID NO 26
Assay: competition Western blot; antiserum pre-incubated with varying concentrations of peptide immunogen

concentration of peptide at which antibody binding to the band was inhibited: 2.54 µM
B1: CS141 synthetic peptide SEQUENCE ID NO 26 (peptide)
peptide: GPTMCFEDRMIMSPVKNNVGRGLNIALVNGTTGAVLGQK
